Data as given in paper PMC9601805, “Characterization of the Escherichia coli pyridoxal 5′‐phosphate homeostasis protein (YggS): Role of lysine residues in PLP binding and protein stability” (Protein Science : A Publication of the Protein Society, 2022).
Substitutions are numbered along the chain they refer to. In names and notes the source's numbering stands.

B1: K36A/K38A/K233A/K234A: E. coli YggS triple lysine variant (protein)
chain: MNDIAHNLAQVRDKISAAATRCGRSPEEITLLAVSATAPASAIAEAIDAGQRQFGENYVQEGVDKIRHFQELGVTGLEWHFIGPLQSNKSRLVAEHFDWCHTIDRLRIATRLNDQRPAELPPLNVLIQINISDENSKSGIQLAELDELAAAVAELPRLRLRGLMAIPAPESEYVRQFEVARQMAVAFAGLKTRYPHIDTLSLGMSDDMEAAIAAGSTMVRIGTAIFGARDYSAA
modifications: left off: His-tag, C-terminal, state not stated
notes: E. coli YggS triple lysine variant
B2: K36A/K137A/K233A/K234A: E. coli YggS triple lysine variant (protein)
chain: B1 chain with A38K, K137A
modifications: left off: His-tag, C-terminal, state not stated
notes: as for B1
B3: K36A/K38A/K137A/K233A/K234A: E. coli YggS quadruple lysine variant (protein)
chain: B1 chain with K137A
modifications: left off: His-tag, C-terminal, state not stated
notes: E. coli YggS quadruple lysine variant

Key:
apo‐YggS = target: T1, apo‐YggS (Escherichia coli, UniProt P67080); test: biochemical; assay type: binding; settings: WT apo-YggS
T1 construct: made in house; host or cells: E. coli HMS174(DE3)
Protocol: Equilibrium binding analyses were carried out by measuring the decrease of protein intrinsic fluorescence observed upon the addition of increasing PLP concentrations to a fixed concentration of apo‐YggS (Figure 1b).
Dissociation constants were calculated from saturation curves obtained measuring the protein fluorescence emission intensity as a function of increasing PLP concentration. […] Fluorescence emission spectra were recorded from 310 to 450 nm upon excitation at 280 nm. Excitation and emission slits were set at 3 and 5 nm, respectively.

[1] = Covalent (Schiff base) PLP binding judged by absorption spectra; settings: ~416–420 nm band
Protocol: Our strategy was to start from the K36A variant and gradually add further variations so as to obtain all possible combinations of double, triple, and quadruple variants. Variations of the last two residues at the C‐terminal end of the protein, K233 and K234, were always introduced together and are therefore considered as a single K233A/K234A variation.
All spectroscopic measurements were carried out at 20°C in 20 mM NaHEPES pH 7.5. UV–visible spectra were recorded with a Hewlett‐Packard 8453 diode‐array spectrophotometer. Far‐UV (190–250 nm) and Near‐UV–visible (250–500 nm) CD spectra were measured with a Jasco 710 spectropolarimeter equipped with a DP 520 processor using 0.1‐cm (far‐UV) or 1‐cm path length quartz cuvettes and results were expressed as ellipticity [Θ]. Absorption spectra of WT and variant forms were deconvoluted into their component bands using Metzler's band‐shape analysis method.[22]

[2] = Differential scanning fluorimetry (DSF), apparent Tm of YggS forms; assay type: physicochemical; settings: for T m (°C) Apo +2 μM PLP: 2 μM protein + 2 μM (equimolar) PLP; for T m (°C) Apo + 300 μM PLP: 2 μM protein + 300 μM PLP; for T m (°C) Apo: apo-form, 2 μM protein, no PLP
Protocol: Differential scanning fluorimetry (DSF) assays were performed on a Real Time PCR Instrument (CFX Connect Real Time PCR system, Bio‐Rad, Hercules, CA). In a typical experiment, 2 μM WT and variant apo‐YggS forms in 50 mM NaHEPES, pH 7.5, 50 mM NaCl, and Sypro Orange (5x, Thermo Scientific) were mixed with various ligands (total volume of 25 μl) in a 96‐well PCR plate. Fluorescence was measured from 25°C to 95°C in 0.4°C/30 s steps (excitation 450–490 nm; detection 560–580 nm). All samples were run in triplicate. Denaturation profiles were analyzed as described in Nardella et al.[40]

T1 sequence (P67080 whole entry): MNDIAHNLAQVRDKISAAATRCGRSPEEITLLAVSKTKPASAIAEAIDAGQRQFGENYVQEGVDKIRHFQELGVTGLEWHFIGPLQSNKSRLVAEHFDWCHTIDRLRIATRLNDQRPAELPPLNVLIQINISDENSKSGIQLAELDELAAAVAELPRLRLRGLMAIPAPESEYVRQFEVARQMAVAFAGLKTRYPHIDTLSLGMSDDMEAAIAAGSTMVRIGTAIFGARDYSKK

Molecule | change in fluorescence emission attributable to binding (apo‐YggS) | capability to bind PLP covalently as a Schiff base [1] | T m (°C) Apo +2 μM PLP [2] [°C] | T m (°C) Apo + 300 μM PLP [2] [°C] | T m (°C) Apo [2] [°C]
Cc1ncc(COP(=O)(O)O)c(C)c1O [4dPNP] | could only be detected with PL and PNP | – | – | – | –
Cc1ncc(CO)c(CO)c1O [PN, pyridoxine] | could only be detected with PL and PNP | – | – | – | –
B1 | – | lost the capability to bind PLP covalently | 68.9 ± 0.1 | 69.6 ± 0.1 | 68.8 ± 0.1
B2 | – | – | 64.7 ± 0.1 | 66.0 ± 0.1 | 64.6 ± 0.1
B3 | – | lost the capability to bind PLP covalently | 68.8 ± 0.1 | 69.1 ± 0.3 | 68.7 ± 0.1
